Where a chain is given by its changes, count along the chain named. In names and notes the source's numbering stands.
B1: P1-068757 (antibody, human IgG1, kappa, V domains shown)
VH: EVQLVESGGGLVQPGKSLRLSCAASGFTLEDEAMHWVRQAPGKGLEWVSGINWNSEEIGYADSVKGRFTISRDNAKNSLYLQMNSLRTEDTALYYCAKVPGYSGGWIDAEDDWGQGTMVTVSS
VL: not shown
notes: also called P1-068757-9; 029 progeny
B2: P1-068765 (antibody, human IgG1, kappa, V domains shown)
VH: B1 VH with L29D, E32Y
VL: not shown
notes: also called P1-068765-10; 029 progeny
B3: P1-068771 (antibody, human IgG1, kappa, V domains shown)
VH: B1 VH with E56H
VL: not shown
notes: also called P1-068771-10; 029 progeny
B4: P1-068775 (antibody, human IgG1, kappa, V domains shown)
VH: B1 VH with N52D, G104H
VL: not shown
notes: also called P1-068775-8; 029 progeny
B5: P1-068748 (antibody, human IgG1, kappa, V domains shown)
VH: QVQLVESGGGVVQPGRSLRLSCAASGFTFSHHAMHWVRQAPGKGLEWVAIIWYDGSNDDYADSVKGRFTISRDNSKNTLYLQMNSLRAEDTAVYYCARDSGFYDSYYFDYWGQGTLVTVSS
VL: EIVLTQSPATLSLSPGERATLSCRASQSVSSSYLAWYQQKPGQAPRLLIYDASNRATGIPARFSGSGSGTDFTLTISSLEPEDFATYYCQQYNSYPYTFGQGTKLEIKR
notes: IgG1.3; also called P1-068748-6
B6: P1-070868 (P1-068761_E55A) (antibody, human IgG1, kappa, V domains shown)
VH: B1 VH with E56A, G104H, D112V
VL: not shown
notes: IgG1.3; also called P1-070868-6
B7: P1-070906 (P1-068767_D52N) (antibody, human IgG1, kappa, V domains shown)
VH: B1 VH with E32Y, E57N
VL: not shown
notes: IgG1.3; also called P1-070906-6
B8: P1-070908 (P1-068767_E55A) (antibody, human IgG1, kappa, V domains shown)
VH: B1 VH with E32Y, N52D, E56A, E57N
VL: not shown
notes: IgG1.3; also called P1-070908-6
B9: P1-070914 (P1-068767_E30D_D52N) (antibody, human IgG1, kappa, V domains shown)
VH: B1 VH with E30D, E32Y, E57N
VL: not shown
notes: IgG1.3; also called P1-070914-3
B10: P1-070916 (P1-068767_D52N_E55A) (antibody, human IgG1, kappa, V domains shown)
VH: B1 VH with E32Y, E56A, E57N
VL: not shown
notes: IgG1.3; also called P1-070916-6
B11: P1-061520 (41F11 VK_A64G) (antibody, V domains shown)
VH: QVQLVESGGGLVKPGGSLRLSCAASGFTFSDYYMSWIRQAPGKGLEWVSYISNSGSPIYYADSVKGRFTISRDNAKNSLYLQMNSLRAEDTAVYYCARDLPGWYFDLWGRGTLVTVSS
VL: EIVLTQSPATLSLSPGERATLSCRASQSVSSYLAWYQQKPGQAPRLLIYDASNRATGIPARFSGSGSGTDFTLTISSLEPEDFAVYYCQQRNNWPRTFGQGTKVEIKR
notes: tied through the name 41F11 and the A64G change; also called P1-061520-21; VISTA.4.A64G
B12: P1-070976 (41F11_VH_T28P_Y50W_S55E_D95H_L96E_P97E_Y100E; Vk_A64G) (antibody, V domains shown)
VH: B11 VH with T28P, Y50W, S56E, D99H, L100E, P101E, Y104E
VL: EIVLTQSPATLSLSPGERATLSCRASQSVSSYLAWYQQKPGQAPRLLIYDASNRATGIPARFSGSGSGTDFTLTISSLEPEDFAVYYCQQRNNWPRTFGQGTKVEIK
notes: also called P1-070976-11
B13: P1-069063 (antibody, human IgG1, kappa, V domains shown)
VH: B1 VH with E32Y, E56A, E110D, D112E
VL: not shown
notes: IgG1.3
B14: P1-069065 (antibody, human IgG1, kappa, V domains shown)
VH: B1 VH with E56D, E57D, E110F, D112V
VL: not shown
notes: IgG1.3
B15: P1-069067 (antibody, human IgG1, kappa, V domains shown)
VH: B1 VH with E30D, E32Y, E110D, D112E
VL: not shown
notes: IgG1.3
B16: P1-069069 (antibody, human IgG1, kappa, V domains shown)
VH: B1 VH with E30D, E32Y, E110D, D112V
VL: not shown
notes: IgG1.3
B17: P1-069071 (antibody, human IgG1, kappa, V domains shown)
VH: B1 VH with E56A, E57D, G104E, E110F, D112V
VL: not shown
notes: IgG1.3
B18: P1-069075 (antibody, human IgG1, kappa, V domains shown)
VH: B1 VH with E32Y, N54D, E56A, G104H, D112V
VL: not shown
notes: IgG1.3
B19: P1-069077 (antibody, human IgG1, kappa, V domains shown)
VH: B1 VH with E56D, E110F, D112V
VL: not shown
notes: IgG1.3

The binders below were run against T1, hVISTA-ECD 6-His tag (human, UniProt Q9H7M9 33-193) (assay: SPR, Ab on Protein A, hVISTA analyte, pH 6.45).
T1 construct: also called monovalent hVISTA-ECD; human VISTA
T1 sequence (Q9H7M9 other isoform, or with tags, fused parts or gaps limits assumed): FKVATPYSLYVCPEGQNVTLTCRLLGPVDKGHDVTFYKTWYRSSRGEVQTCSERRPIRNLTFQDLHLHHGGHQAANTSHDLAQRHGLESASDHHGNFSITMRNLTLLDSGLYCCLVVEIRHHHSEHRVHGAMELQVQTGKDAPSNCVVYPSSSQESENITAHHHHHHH

| Binder | Kd [nM] | koff [s⁻¹] | kon [M⁻¹ s⁻¹] |
| --- | --- | --- | --- |
| B1 | 140 | 0.018 | 130000 |
| B2 | 420 | 0.013 | 31000 |
| B3 | 370 | 0.022 | 61000 |
| B4 | 220 | 0.017 | 77000 |

Each binder was assayed against T1, hVISTA-ECD 6-His tag (assay: SPR; KD at pH 6.45 over KD at pH 6.0 (head prints 7.4)).

| Binder | 7.4 KD/ 6.0 KD |
| --- | --- |
| B1 | 5.8 |
| B2 | 14.2 |
| B3 | 11.6 |
| B4 | 2.8 |

What follows are binders tested against T2, monovalent hVISTA-ECD (amino acids 32-193 of SEQ ID NO: 1 with a 7xHis tail) (human, UniProt Q9H7M9 33-193) (assay: SPR, Ab on Protein A, hVISTA 100-7.8 nM, pH 7.4).
T2 construct: analyte of the SPR assays; also called huVISTA-His; human VISTA-ECD
T2 sequence (Q9H7M9 other isoform, or with tags, fused parts or gaps limits assumed): as above
Procedure: (§1) Further binding kinetic experiments were performed at various pHs on VISTA antibodies described herein by SPR as generally described in Example 9 above. Antibodies were normalized to 50 nM concentration in PBST pH 7.4 and captured on a Protein A CM5 chip (ID 4931) by injecting for 45 seconds at a 5 µL/min flow rate. An 8-point human VISTA titration ([…]) was prepared in PBST at pH 7.4, 6.9, 6.45, and 6.0. Titrations were injected over the captured antibodies for 180 seconds at 30 µL/min. Sensorgrams were fit to a 1:1 binding model in T200 evaluation software and the kinetic constants were reported.

| Binder | Kd [nM] | koff [s⁻¹] | kon [M⁻¹ s⁻¹] |
| --- | --- | --- | --- |
| B5 | 920 | 0.036 | 40000 |
| B6 | 3400 | 0.044 | 13000 |
| B7 | 4400 | 0.029 | 6500 |
| B8 | 350 | 0.024 | 67000 |
| B9 | 4200 | 0.035 | 8400 |
| B10 | 3700 | 0.038 | 10000 |
| B11 | 1.42 | 0.000871 | 613000 |
| B12 | 6900 | 0.016 | 2400 |

What follows are binders tested against T1, hVISTA-ECD 6-His tag (assay: SPR, Ab on Protein A, hVISTA analyte, pH 6.0).

| Binder | Kd [nM] | koff [s⁻¹] | kon [M⁻¹ s⁻¹] |
| --- | --- | --- | --- |
| B1 | 24 | 0.01 | 420000 |
| B2 | 29 | 0.0045 | 150000 |
| B3 | 32 | 0.01 | 320000 |
| B4 | 77 | 0.009 | 120000 |

Each binder was assayed against T2, monovalent hVISTA-ECD (amino acids …) (assay: SPR 37C, Ab on Protein A, hVISTA-ECD 50-5 nM, pH 6.0, average).
Procedure: (§2) Binding of several preparations of each of the ‘029 progeny clones and of the parent ‘029 antibodies, formatted as IgG1.3 antibodies, to human VISTA at pH 6.0 and 7.4 was measured by Surface plasmon resonance (SPR). SPR analysis was performed to measure koff and KD binding affinity measurements for VISTA Abs at acidic and neutral pHs using a Biacore® T100 instrument (GE Healthcare). […] Antibodies were diluted to 25 nM in PBST pH 7.4, and were captured across active biosensor flow cells at 5 ul/min for 60 seconds. A concentration series of 50 - 5 nM monovalent hVISTA-ECD (SEQ ID NO: 325) was prepared in pH 7.4 and 6.0 running buffers, and was injected over the captured antibodies at 40 ul/min to measure association and dissociation. Two 15 second injections of 10 mM glycine pH 1.5 were used to regenerate the Protein A capture surface between assay cycles. Rate constants ka (kₒₙ) and kd (koff) were derived from reference flow cell and 0 nM blank-subtracted sensorgrams, and were fit to a 1:1 binding model in Biacore® T200 Evaluation Software v.2.0. The affinity constant, KD was calculated as the ratio of rate constants koff/kₒₙ for each VISTA antibody.

| Binder | Kd [nM] | koff [s⁻¹] | kon [M⁻¹ s⁻¹] |
| --- | --- | --- | --- |
| B5 | 1 | 0.0015 | 1.4e+06 |
| B13 | 2.4 | 0.0044 | 1.9e+06 |
| B14 | 0.38 | 0.00022 | 570000 |
| B15 | 2.7 | 0.0045 | 1.7e+06 |
| B16 | 0.86 | 0.0012 | 1.4e+06 |
| B17 | 0.73 | 0.00051 | 700000 |
| B18 | 0.22 | 0.00029 | 1.3e+06 |
| B19 | 0.19 | 0.00012 | 630000 |

What follows are binders tested against T1, hVISTA-ECD 6-His tag (assay: SPR; kd at pH 6.45 over kd at pH 6.0 (head prints 7.4)).
Procedure: as §1
(§3) Each table reports the data at one of the four tested pHs (7.4, 6.9, 6.45, and 6.0, respectively). The 8-point hVISTA titration used in these assays was chosen to provide increased confidence in kinetic values reported at neutral pH conditions. A relatively stringent cutoff for non-binding was applied in this assay. Certain progeny of P1-061029 antibody (P1-068757, ‘759, ‘765, ‘771, and ‘775) show no binding to hVISTA at micromolar concentrations at pH 7.4, while ‘761 and ‘767 show no binding to hVISTA at 100 nM at pH 7.4 but do show binding to hVISTA at micromolar concentrations.

| Binder | 7.4 kd/ 6.0 kd |
| --- | --- |
| B1 | 1.7 |
| B2 | 2.8 |
| B3 | 2.2 |
| B4 | 1.8 |

The binders below were run against T2, monovalent hVISTA-ECD (amino acids …) (assay: SPR 37C, Ab on Protein A, hVISTA-ECD 50-5 nM, pH 7.4, average).
Procedure: as §2

| Binder | Kd [nM] | koff [s⁻¹] | kon [M⁻¹ s⁻¹] |
| --- | --- | --- | --- |
| B13 | 230 | 0.027 | 120000 |
| B14 | 39 | 0.0023 | 59000 |
| B15 | 290 | 0.027 | 100000 |
| B16 | 84 | 0.0075 | 90000 |
| B17 | 93 | 0.004 | 43000 |
| B18 | 18 | 0.0023 | 130000 |
| B19 | 31 | 0.0019 | 60000 |

The binders below were run against T2, monovalent hVISTA-ECD (amino acids …) (assay: SPR, pH 7.4 over pH 6.0).
Procedure: as §1, §3

| Binder | 7.4 KD/ 6.0 KD | 7.4 kd/ 6.0 kd |
| --- | --- | --- |
| B5 | 212 | 9.9 |
| B6 | 625 | 18.9 |
| B7 | 731 | 15.3 |
| B8 | 34.5 | 8.6 |
| B9 | 396 | 14.6 |
| B10 | 563 | 19.4 |
| B11 | 0.1 | 0 |
| B12 | 696 | 7 |
